According to article doi:10.1101/2020.07.29.226720 (bioRxiv, 2020):

Biological target: the molecule itself
Assay: SEC

B1: AthPEPCK1 Δ19 truncated mutant (enzyme, Arabidopsis thaliana, UniProt Q9T074 20-671, looked up)
chain: GPVMPKITTGAAKRGSGVCHDDSGPTVNATTIDELHSLQKKRSAPTTPINQNAAAAFAAVSEEERQKIQLQSISASLASLTRESGPKVVRGDPAEKKTDGSTTPAYAHGQHHSIFSPATGAVSDSSLKFTHVLYNLSPAELYEQAIKYEKGSFITSNGALATLSGAKTGRAPRDKRVVRDATTEDELWWGKGSPNIEMDEHTFMVNRERAVDYLNSLEKVFVNDQYLNWDPENRIKVRIVSARAYHSLFMHNMCIRPTQEELESFGTPDFTIYNAGQFPCNRYTHYMTSSTSVDLNLARREMVILGTQYAGEMKKGLFSVMHYLMPKRRILSLHSGCNMGKDGDVALFFGLSGTGKTTLSTDHNRYLIGDDEHCWTETGVSNIEGGCYAKCVDLSREKEPDIWNAIKFGTVLENVVFDEHTREVDYSDKSVTENTRAAYPIEFIPNAKIPCVGPHPTNVILLACDAFGVLPPVSKLNLAQTMYHFISGYTALVAGTEDGIKEPTATFSACFGAAFIMLHPTKYAAMLAEKMKSQGATGWLVNTGWSGGSYGVGNRIKLAYTRKIIDAIHSGSLLKANYKKTEIFGFEIPTEIEGIPSEILDPVNSWSDKKAHKDTLVKLGGLFKKNFEVFANHKIGVDGKLTEEILAAGPIF
stoichiometry N: 6

B2: AthPEPCK1 Δ101 truncated mutant (enzyme, Arabidopsis thaliana, UniProt Q9T074 102-671, looked up)
chain: ESGPKVVRGDPAEKKTDGSTTPAYAHGQHHSIFSPATGAVSDSSLKFTHVLYNLSPAELYEQAIKYEKGSFITSNGALATLSGAKTGRAPRDKRVVRDATTEDELWWGKGSPNIEMDEHTFMVNRERAVDYLNSLEKVFVNDQYLNWDPENRIKVRIVSARAYHSLFMHNMCIRPTQEELESFGTPDFTIYNAGQFPCNRYTHYMTSSTSVDLNLARREMVILGTQYAGEMKKGLFSVMHYLMPKRRILSLHSGCNMGKDGDVALFFGLSGTGKTTLSTDHNRYLIGDDEHCWTETGVSNIEGGCYAKCVDLSREKEPDIWNAIKFGTVLENVVFDEHTREVDYSDKSVTENTRAAYPIEFIPNAKIPCVGPHPTNVILLACDAFGVLPPVSKLNLAQTMYHFISGYTALVAGTEDGIKEPTATFSACFGAAFIMLHPTKYAAMLAEKMKSQGATGWLVNTGWSGGSYGVGNRIKLAYTRKIIDAIHSGSLLKANYKKTEIFGFEIPTEIEGIPSEILDPVNSWSDKKAHKDTLVKLGGLFKKNFEVFANHKIGVDGKLTEEILAAGPIF
stoichiometry N: 6
